{"source": "patent US20140378382A1", "about": "(WISCONSIN ALUMNI RESEARCH FOUNDATION, published 2014)", "binders": {"B1": {"name": "CycD6 hPTHrP(1-34) (peptide)", "peptide": "AVSEHQLLHDKGK[ACPC]IQD[ACPC]RRR[APC]FLH[APC]LIA[ACPC]IHT[ACPC]-NH2"}, "B2": {"name": "ACPC(1,5,7) (peptide)", "peptide": "[ACPC]VSE[ACPC]Q[ACPC]MHNLGKHLNSMERVEWLRKKLQDVHNF-NH2"}, "B3": {"name": "hPTH(7-34) (peptide)", "peptide": "LMHNLGKHLNSMERVEWLRKKLQDVHNF-NH2"}, "B4": {"name": "CycD6 hPTHrP(1-34) ACPC(1,5,7) (peptide)", "peptide": "[ACPC]VSE[ACPC]Q[ACPC]LHDKGK[ACPC]IQD[ACPC]RRR[APC]FLH[APC]LIA[ACPC]IHT[ACPC]-NH2"}, "B5": {"name": "ACPC(7) PTH(1-34) (peptide)", "peptide": "SVSEIQ[ACPC]MHNLGKHLNSMERVEWLRKKLQDVHNF-NH2"}, "B6": {"name": "FcycD6_ACPC(1,5,7) (peptide)", "peptide": "[ACPC″]VSE[ACPC″]Q[ACPC″]MHNLGK[ACPC″]LNS[ACPC″]ERV[APC]WLR[APC]KLQ[ACPC″]VHN[ACPC″]-NH2"}, "B7": {"name": "bPTH(7-34)dTrp12 (peptide)", "peptide": "FMHNL[dW]KHLSSMERVEWLRKKLQDVHNF-NH2", "modifications": "N-terminus assumed", "SMILES": "CSCC[C@H](NC(=O)[C@H](CO)NC(=O)[C@H](CO)NC(=O)[C@H](CC(C)C)NC(=O)[C@H](Cc1c[nH]cn1)NC(=O)[C@H](CCCCN)NC(=O)[C@@H](Cc1c[nH]c2ccccc12)NC(=O)[C@H](CC(C)C)NC(=O)[C@H](CC(N)=O)NC(=O)[C@H](Cc1c[nH]cn1)NC(=O)[C@H](CCSC)NC(=O)[C@@H](N)Cc1ccccc1)C(=O)N[C@@H](CCC(=O)O)C(=O)N[C@@H](CCCNC(=N)N)C(=O)N[C@H](C(=O)N[C@@H](CCC(=O)O)C(=O)N[C@@H](Cc1c[nH]c2ccccc12)C(=O)N[C@@H](CC(C)C)C(=O)N[C@@H](CCCNC(=N)N)C(=O)N[C@@H](CCCCN)C(=O)N[C@@H](CCCCN)C(=O)N[C@@H](CC(C)C)C(=O)N[C@@H](CCC(N)=O)C(=O)N[C@@H](CC(=O)O)C(=O)N[C@H](C(=O)N[C@@H](Cc1c[nH]cn1)C(=O)N[C@@H](CC(N)=O)C(=O)N[C@@H](Cc1ccccc1)C(N)=O)C(C)C)C(C)C"}, "B8": {"name": "D6 hPTHrP(1-34) ACPC(1,5,7) (peptide)", "peptide": "[ACPC]VSE[ACPC]Q[ACPC]LHDKGKSIQDLRRRFFLHKLIAEIHTA-NH2", "modifications": "not fully specified; also: D6 β3 residues, positions not shown (marking lost)"}, "B9": {"name": "PTH(1-34) (peptide)", "peptide": "SVSEIQLMHNLGKHLNSMERVEWLRKKLQDVHNF-NH2"}, "B10": {"name": "B3 (peptide)", "peptide": "SVSEIQLMHNLGKHLNSMERVEWLRKKLQDVQNF-NH2", "modifications": "not fully specified (residue 32); printed as SVSEIQLMHNLGKHLNSMERVEWLRKKLQDVQNF-NH2; also: three β3 residues, positions not given here in text", "notes": "also called α/β-peptide B3"}}, "key": {"[1]": {"target": "T1, human parathyroid hormone receptor 1, wild-type (hPTHR-1) (human, UniProt Q03431 27-593)", "T1 sequence (looked up)": "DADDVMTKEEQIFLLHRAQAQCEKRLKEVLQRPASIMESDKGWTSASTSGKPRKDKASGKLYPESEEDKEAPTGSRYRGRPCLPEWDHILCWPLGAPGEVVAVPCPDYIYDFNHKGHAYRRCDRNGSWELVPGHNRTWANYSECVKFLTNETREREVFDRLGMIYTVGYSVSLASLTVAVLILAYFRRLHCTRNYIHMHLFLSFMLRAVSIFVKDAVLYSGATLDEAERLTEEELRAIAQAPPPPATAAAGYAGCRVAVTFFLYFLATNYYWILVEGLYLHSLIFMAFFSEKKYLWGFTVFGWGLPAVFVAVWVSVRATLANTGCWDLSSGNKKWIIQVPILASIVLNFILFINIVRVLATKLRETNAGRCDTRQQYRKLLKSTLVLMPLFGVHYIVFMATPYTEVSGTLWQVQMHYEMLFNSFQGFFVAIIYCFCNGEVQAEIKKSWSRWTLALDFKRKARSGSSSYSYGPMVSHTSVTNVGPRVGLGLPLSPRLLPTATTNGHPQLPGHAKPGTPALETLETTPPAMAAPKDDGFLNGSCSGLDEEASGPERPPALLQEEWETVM", "experiment": "cell-based or functional assay"}, "[2]": {"target": "parathyroid hormone receptor-2 (PTHR-2)", "sequence (P49190 whole entry)": "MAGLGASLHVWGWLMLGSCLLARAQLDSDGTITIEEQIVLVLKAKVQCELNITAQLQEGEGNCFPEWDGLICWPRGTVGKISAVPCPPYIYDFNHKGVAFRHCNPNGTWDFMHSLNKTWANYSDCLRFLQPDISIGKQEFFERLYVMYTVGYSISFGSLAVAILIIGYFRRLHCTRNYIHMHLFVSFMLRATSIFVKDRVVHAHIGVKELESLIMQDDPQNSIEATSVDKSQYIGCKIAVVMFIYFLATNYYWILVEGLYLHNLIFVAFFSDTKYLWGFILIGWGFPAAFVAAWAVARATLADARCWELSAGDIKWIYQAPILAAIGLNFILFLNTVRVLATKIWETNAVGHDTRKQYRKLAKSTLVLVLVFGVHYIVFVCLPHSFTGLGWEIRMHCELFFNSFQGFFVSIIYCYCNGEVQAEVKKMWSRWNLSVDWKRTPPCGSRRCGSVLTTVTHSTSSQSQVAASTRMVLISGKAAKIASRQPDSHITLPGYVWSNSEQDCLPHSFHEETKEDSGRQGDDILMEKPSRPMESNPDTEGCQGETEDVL", "experiment": "cell-based or functional assay"}, "[3]": {"target": "T2, PTHR-1 (species and cells not stated for the assay) (Homo sapiens (Human), UniProt Q03431 27-593)", "T2 sequence": "T1 sequence (looked up)", "experiment": "cell-based or functional assay"}, "[4]": {"target": "T2, PTHR-1 (species and cells not stated …)", "experiment": "cell-based or functional assay", "remark": "listed apart in the source"}, "delNT PTHR1": {"target": "T3, delNT PTHR1 (human, UniProt Q03431 27-593)", "T3 sequence (looked up)": "T1 sequence (looked up)", "experiment": "cell-based or functional assay"}, "[5]": {"target": "T1, human parathyroid hormone receptor 1, …", "experiment": "cell-based or functional assay", "remark": "listed apart in the source"}, "[6]": {"target": "T2, PTHR-1 (species and cells not stated …)", "experiment": "cell-based or functional assay", "remark": "listed apart in the source"}, "[7]": {"target": "T2, PTHR-1 (species and cells not stated …)", "experiment": "cell-based or functional assay", "remark": "listed apart in the source"}, "[8]": {"target": "T4, rat parathyroid hormone receptor 1, wild-type (rPTHR-1) (rat, UniProt P25961 27-591)", "T4 sequence (looked up)": "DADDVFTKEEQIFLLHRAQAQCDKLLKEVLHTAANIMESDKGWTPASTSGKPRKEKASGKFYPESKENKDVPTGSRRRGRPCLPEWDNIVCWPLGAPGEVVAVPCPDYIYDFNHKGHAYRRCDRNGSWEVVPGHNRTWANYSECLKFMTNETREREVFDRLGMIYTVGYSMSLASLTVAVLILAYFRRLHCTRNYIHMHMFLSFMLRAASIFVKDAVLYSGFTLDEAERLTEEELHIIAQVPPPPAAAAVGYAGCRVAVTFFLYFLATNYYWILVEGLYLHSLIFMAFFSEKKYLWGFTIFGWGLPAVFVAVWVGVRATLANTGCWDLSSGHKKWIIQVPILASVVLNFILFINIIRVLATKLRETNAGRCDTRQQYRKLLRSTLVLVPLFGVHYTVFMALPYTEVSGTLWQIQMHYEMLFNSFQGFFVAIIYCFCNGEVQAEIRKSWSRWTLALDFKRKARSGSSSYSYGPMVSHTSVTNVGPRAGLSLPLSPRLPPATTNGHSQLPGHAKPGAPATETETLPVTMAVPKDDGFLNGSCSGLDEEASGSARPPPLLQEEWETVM", "experiment": "cell-based or functional assay", "design": "AUC-on / AUC-washout: unit not given beside the values"}, "[9]": {"target": "T4, rat parathyroid hormone receptor 1, …", "experiment": "cell-based or functional assay"}, "[10]": {"target": "T4, rat parathyroid hormone receptor 1, …", "experiment": "cell-based or functional assay", "remark": "listed apart in the source"}, "[11]": {"target": "T1, human parathyroid hormone receptor 1, …", "experiment": "R0 state; 125I-PTH(1-34) displacement; COS-7 membranes, hPTHR-1, GTPγS", "from_the_text": "^aValues are means of n ≧4 experiments, each performed in duplicate."}, "[12]": {"target": "T1, human parathyroid hormone receptor 1, …", "experiment": "cell-based or functional assay", "remark": "listed apart in the source"}, "[13]": {"target": "T1, human parathyroid hormone receptor 1, …", "experiment": "cell-based or functional assay", "remark": "listed apart in the source"}, "[14]": {"target": "T4, rat parathyroid hormone receptor 1, …", "experiment": "RG state; 125I-M-PTH(1-15) displacement; COS-7 membranes, rPTHR-1 + Gαs mutant", "from_the_text": "(§1) Binding inhibition constants are expressed as the -log (IC50) and corresponding nanoMolar (nM) values. Values are means (±SEM) of the number of experiments shown (n), each performed in duplicate."}, "[15]": {"target": "T1, human parathyroid hormone receptor 1, …", "experiment": "R0 state; 125I-PTH(1-34) displacement; COS-7 membranes, hPTHR-1, GTPγS", "from_the_text": "FIGS. 6A, 6B, 6C, 6D, 6E, and 6F constitute a series of graphs depicting binding of various analogs to the R⁰ and RG forms of human PTHR-1 (hPTHR-1). […] Data are means (±SEM) of n≧4 experiments, each performed in duplicate.", "remark": "listed apart in the source"}, "[16]": {"target": "T4, rat parathyroid hormone receptor 1, …", "experiment": "R0 state; 125I-PTH(1-34) displacement; COS-7 membranes, rPTHR-1, GTPγS", "from_the_text": "as §1"}}, "note": "Where two headings read alike, the source gives them in different places. Non-standard residues stand in square brackets, D forms with d. Primed or numbered codes have the meaning given here. No end group written: not given here. APC = aminopyrrolidine carboxylic acid (2-aminopyrrolidine-4-carboxylic acid); ACPC″ = 2-aminocyclopentane carboxylic acid (X); ACPC = 2-aminocyclopentane carboxylic acid"}
{"binder": "B1", "values": [{"measurement": "cAMP EC50", "setting": "[1]", "result": 0.65, "unit": "nM"}]}
{"binder": "B2", "values": [{"measurement": "cAMP response PTH2R/PTH1R", "setting": "[2]", "result": 11, "unit": "ratio"}, {"measurement": "Fold PTH", "setting": "[3]", "result": 36.7, "unit": "fold"}, {"measurement": "cAMP EC50", "setting": "[3]", "result": 2.99, "unit": "nM"}]}
{"binder": "B3", "values": [{"measurement": "EC50(+)inhibitor/EC50(-)inhibitor", "setting": "[4]", "result": 1.6, "unit": "ratio"}, {"measurement": "EC50 of PTH(1-34) signaling with 1 µM inhibitor", "setting": "[4]", "result": 0.25, "unit": "nM"}]}
{"binder": "B4", "values": [{"measurement": "cAMP EC50", "setting": "[1]", "result": 1.08, "unit": "nM"}]}
{"binder": "B5", "values": [{"measurement": "Fold PTH", "setting": "delNT PTHR1", "result": 74, "unit": "fold"}, {"measurement": "cAMP EC50", "setting": "delNT PTHR1", "result": 4600, "unit": "nM"}, {"measurement": "Fold PTH", "setting": "[5]", "result": 1.3, "unit": "fold"}, {"measurement": "cAMP EC50", "setting": "[5]", "result": 0.12, "unit": "nM"}, {"measurement": "cAMP response PTH1R/PTH2R", "setting": "[6]", "result": 44, "unit": "ratio"}]}
{"binder": "B6", "values": [{"measurement": "cAMP response PTH2R/PTH1R", "setting": "[2]", "result": 45, "unit": "ratio"}, {"measurement": "Fold PTH", "setting": "[3]", "result": 234, "unit": "fold"}, {"measurement": "cAMP EC50", "setting": "[3]", "result": 19.1, "unit": "nM"}, {"measurement": "cAMP EC50", "setting": "[7]", "result": 25.9, "unit": "nM"}]}
{"binder": "B7", "values": [{"measurement": "EC50(+)inhibitor/EC50(-)inhibitor", "setting": "[4]", "result": 60.1, "unit": "ratio"}, {"measurement": "EC50 of PTH(1-34) signaling with 1 µM inhibitor", "setting": "[4]", "result": 9.47, "unit": "nM"}]}
{"binder": "B8", "values": [{"measurement": "cAMP EC50", "setting": "[1]", "result": 1.03, "unit": "nM"}]}
{"binder": "B9", "values": [{"measurement": "AUC-on", "setting": "[8]", "result": 92000}, {"measurement": "AUC-washout", "setting": "[8]", "result": 100000}, {"measurement": "cAMP Max", "setting": "[9]", "result": "1 relative to PTH(1-34)"}, {"measurement": "cAMP Max", "setting": "[10]", "result": 65, "unit": "cps × 10-3"}]}
{"binder": "B10", "values": [{"measurement": "IC50", "setting": "[11]", "result": 80, "unit": "nM"}, {"measurement": "cAMP EC50", "setting": "[12]", "result": 0.11, "unit": "nM"}, {"measurement": "cAMP Max", "setting": "[12]", "result": "1.08 relative to PTH(1-34)"}, {"measurement": "cAMP EC50", "setting": "[13]", "result": 0.11, "unit": "nM"}, {"measurement": "cAMP Max", "setting": "[13]", "result": 234, "unit": "cps × 10^-3"}, {"measurement": "cAMP pEC50", "setting": "[13]", "result": 9.94}, {"measurement": "-log (IC50)", "setting": "[14]", "result": 8.07}, {"measurement": "IC50", "setting": "[14]", "result": 8.6, "unit": "nM"}, {"measurement": "-log (IC50)", "setting": "[15]", "result": 7.1}, {"measurement": "IC50", "setting": "[15]", "result": 80, "unit": "nM"}, {"measurement": "-log (IC50)", "setting": "[16]", "result": 6.95}, {"measurement": "IC50", "setting": "[16]", "result": 111, "unit": "nM"}, {"measurement": "cAMP EC50", "setting": "[10]", "result": 0.55, "unit": "nM"}, {"measurement": "cAMP Max", "setting": "[10]", "result": 69, "unit": "cps × 10-3"}, {"measurement": "cAMP pEC50", "setting": "[10]", "result": 9.26}]}
